Assay results from patent publication US7033999B2, “Nitrosated and nitrosylated heme proteins” (Brigham and Women's Hospital, priority 1991, dated 2006).
Like-named read-outs stand apart in the source and are kept apart here.

Key:
fibrinogen = molecular target: T1, fibrinogen (Homo sapiens, UniProt P02671+P02675+P02679); test: Binding of t-PA and S—NO-t-PA to fibrinogen-coated wells (ELISA)
T1 construct: purchased Enzyme Research Laboratories, South Bend, Ind
T1 sequence (P02671 20-629 limits assumed): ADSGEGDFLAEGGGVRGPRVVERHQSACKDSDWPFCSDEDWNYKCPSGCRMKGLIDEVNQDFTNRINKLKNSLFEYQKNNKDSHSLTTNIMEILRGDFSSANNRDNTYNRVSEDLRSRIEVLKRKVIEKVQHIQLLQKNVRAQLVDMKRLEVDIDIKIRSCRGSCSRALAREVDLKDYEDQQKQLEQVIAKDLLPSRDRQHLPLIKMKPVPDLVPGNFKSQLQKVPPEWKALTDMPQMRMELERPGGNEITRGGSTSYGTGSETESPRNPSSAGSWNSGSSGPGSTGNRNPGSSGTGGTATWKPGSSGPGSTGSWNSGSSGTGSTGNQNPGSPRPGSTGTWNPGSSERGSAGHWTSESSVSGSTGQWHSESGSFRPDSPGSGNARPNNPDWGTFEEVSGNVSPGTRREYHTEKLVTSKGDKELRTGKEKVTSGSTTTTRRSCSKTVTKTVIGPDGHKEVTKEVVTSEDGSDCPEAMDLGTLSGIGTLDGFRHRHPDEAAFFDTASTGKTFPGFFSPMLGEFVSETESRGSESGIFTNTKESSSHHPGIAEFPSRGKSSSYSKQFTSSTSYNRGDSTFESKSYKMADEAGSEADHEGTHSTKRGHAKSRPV
T1 sequence (P02675 31-491): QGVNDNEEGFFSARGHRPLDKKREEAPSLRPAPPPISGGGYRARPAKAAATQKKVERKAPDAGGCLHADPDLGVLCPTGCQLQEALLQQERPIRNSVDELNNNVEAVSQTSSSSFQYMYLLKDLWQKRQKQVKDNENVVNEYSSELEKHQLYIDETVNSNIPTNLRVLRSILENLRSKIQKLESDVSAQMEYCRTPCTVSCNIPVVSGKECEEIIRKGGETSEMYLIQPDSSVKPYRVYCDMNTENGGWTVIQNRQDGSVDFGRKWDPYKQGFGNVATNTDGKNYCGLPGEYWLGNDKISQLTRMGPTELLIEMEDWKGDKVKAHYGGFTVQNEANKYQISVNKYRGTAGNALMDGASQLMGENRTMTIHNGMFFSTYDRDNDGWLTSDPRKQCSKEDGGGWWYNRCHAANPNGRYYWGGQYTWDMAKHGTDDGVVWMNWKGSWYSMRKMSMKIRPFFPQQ
T1 sequence (P02679 27-433 limits assumed): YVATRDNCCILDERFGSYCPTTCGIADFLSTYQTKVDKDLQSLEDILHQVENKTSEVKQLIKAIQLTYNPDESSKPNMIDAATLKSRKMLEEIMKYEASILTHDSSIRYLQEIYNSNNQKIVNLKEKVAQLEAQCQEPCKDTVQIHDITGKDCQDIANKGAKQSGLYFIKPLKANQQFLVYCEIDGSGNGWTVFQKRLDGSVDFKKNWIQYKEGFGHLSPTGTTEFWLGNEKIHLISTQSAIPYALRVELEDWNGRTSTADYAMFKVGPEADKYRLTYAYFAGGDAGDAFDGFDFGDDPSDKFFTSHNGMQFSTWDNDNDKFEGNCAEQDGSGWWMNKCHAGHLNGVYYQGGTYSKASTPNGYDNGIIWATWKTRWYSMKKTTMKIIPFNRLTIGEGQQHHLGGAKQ
Experimental: The binding of t-PA and S——NO-t-PA to fibrinogen was measured using polystyrene microliter wells (flat-bottom, high binding 96-well EIA plates, cat. #3590, Costar, Cambridge, Mass.). Wells were coated with fibrinogen (0.08 ug/ul) and the remaining binding sites with 2% bovine serum albumin. Quantification of t-PA binding was determined using a Horse-Radish Peroxidase linked sheep antimurine antibody in a colorimetric assay in the presence of O-phenylenediamine, 0.014% H2O2. Color change was measured spectrophotometrically with a Dynatech MR500 Card Reader (Dynatech, Chantilly, Va.) at 490 nm.
Binding of t-PA is reversible and specific, and saturates at 1500–3000 nM; at saturation, 18 ng of t-PA are bound per well ([…] moles t-PA per mole of fibrinogen) with an estimated KDin the range of 15–650 nM. Binding of t-PA and S—NO-t-PA was quantified by ELISA over the concentration range of 150–1500 nM using a mixture containing six murine monoclonal anti-t-PA antibodies.

[1] = Amidolytic activity against chromogenic substrate S2288; type: biochemical; conditions: S2288 hydrolysis; for Km: 25° C., TBS
Experimental: (§1) The amidolytic activities of t-PA and its S-nitrosylated derivative were measured using the relatively specific chromogenic substrate, S2288. Substrate hydrolysis was measured spectrophotometrically at 405 nm with a Gilford Response UV/Vis Spectrophotometer (CIBA-Corning, Oberlin, Ohio). Activity was measured at 25° C. in TBS using substrate concentrations varying from 0.1–2.0 mM and t-PA at a concentration of 100 nM. Kinetic parameters were determined from initial rates by double reciprocal plot analysis. The assessment of inhibition of t-PA and S—NO-t-PA enzymatic activity by PAI-1 was made at an enzyme concentration of 10 nM and a molar ratio of t-PA to active PAI-1 of 1.0. The degree of inhibition was determined relative to the initial rates in the absence of the inhibitor.

PAI-1 = molecular target: T2, PAI-1 (Homo sapiens, UniProt P05121); test: Inhibition of t-PA and S—NO-t-PA enzymatic activity by PAI-1 (S2288); type: biochemical; conditions: direct chromogenic assay with S2288; n=3
T2 construct: gift of Dr. Douglas E. Vaughan
Experimental: as §1

gel-filtered platelets = test: Platelet aggregation (nephelometric aggregometry); type: cell-based, human; conditions: for % Normalized Extent Aggregation: Thrombin (0.024 U/ml), (150 μM) as printed, mean ±S.D.

T2 sequence (P05121 24-402, species assumed): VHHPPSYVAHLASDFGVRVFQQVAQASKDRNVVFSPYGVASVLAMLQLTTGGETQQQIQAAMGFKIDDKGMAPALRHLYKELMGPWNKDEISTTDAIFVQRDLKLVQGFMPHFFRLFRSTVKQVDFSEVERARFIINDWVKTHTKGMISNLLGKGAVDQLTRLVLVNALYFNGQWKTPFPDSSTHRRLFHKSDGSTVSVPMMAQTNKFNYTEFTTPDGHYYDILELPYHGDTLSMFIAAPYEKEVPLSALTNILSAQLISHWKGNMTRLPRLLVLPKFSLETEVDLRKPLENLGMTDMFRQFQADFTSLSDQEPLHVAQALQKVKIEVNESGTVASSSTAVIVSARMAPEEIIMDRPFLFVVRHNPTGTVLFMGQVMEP

| Kd (fibrinogen; Scatchard analysis, read-out: estimated apparent DD for surface-bound fibrinogen) [nM] | binding isotherm compared with t-PA (fibrinogen; two-way ANOVA) | inhibition of hydrolytic activity by PAI-1 (PAI-1) | moles t-PA per mole of fibrinogen at saturation (fibrinogen; at saturation) | t-PA bound per well at saturation (fibrinogen; at saturation) [ng] | concentration at which binding saturates (fibrinogen; fibrinogen-coated wells) [nM] | Kd (fibrinogen; fibrinogen-coated wells, read-out: estimated KD of binding to fibrinogen) [nM] | Substance | kcat [1] [s⁻¹] | Km [1] [µM] | concentrations at which inhibition of platelet aggregation was demonstrable (gel-filtered platelets; ADP (5 μM) or thrombin (0.024 U/ml)) [nM] | % Normalized Extent Aggregation (gel-filtered platelets) [%] |
| --- | --- | --- | --- | --- | --- | --- | --- | --- | --- | --- | --- |
| 450 | not significantly different | equally effective |  |  |  |  | S—NO-t-PA: derived from the nitrosylation of tissue-type plasminogen activator (t-PA) | 0.52 | 295 | 15 to 150 | 0.73 ± 0.28 |
|  |  | equally effective | 0105 moles t-PA per mole of fibrinogen | 18 | 1500 to 3000 | 15 to 650 | t-PA: tissue-type plasminogen activator, provided by Genentech | 0.52 | 280 |  | 0.90 ± 0.15 |
